From patent US10877024B2, “Methods of determining interferon having direct inhibitory effects on tumors and uses thereof” (SUPERLAB FAR EAST LIMITED, priority 2015, dated 2020)
Like-named read-outs stand apart in the source and are kept apart here.

Experiments:
[1] = test system: different cancer cells; assay: Cell viability, Am-Blue assay, 48 hr, statements over all cell lines; format: cell-based, human; details: any of the cancer cell lines
Experimental: Cell culture and reagents. human lung cancer cell lines (A549, H1299, H460, Calu-1), human liver cancer cell lines (SMMC-7721, Huh-7, CL-1), human cervical carcinoma cell line (Hela), human breast cancer cell line (MDA-MB-231), human pancreatic cancer cell line (PANC-1) and human colon cancer cell lines (SW620, HT29, SW480) were purchased from the Shanghai Cell Collection (Shanghai, China). The above cell lines were cultured in 5% CO2 at 37° C. in corresponding complete growth medium formulated by the Shanghai Cell Collection, with 10% heat-inactivated fetal bovine serum (Biochrom, Germany), supplemented with 4 mM glutamine, 50 U/ml penicillin and […] streptomycin.
About 5×10^3 cells in 100 μl complete medium per well were plated in 96-well plates, incubated overnight, and then treated with IFN α-2b or rSIFN-co at concentrations of 100 μg/ml, 50 μg/ml, 25 μg/ml, 12.5 μg/ml, 6.25 μg/ml, 3.13 μg/ml, 1.56 μg/ml, 0.78 μg/ml, 0.39 μg/ml, and 0.20 μg/ml, respectively, for about 48 hr, at which time the cells were harvested for analysis. The cell viability rate was evaluated by SunBio Am-Blue assay kit (Cat #: SBAB8025, Shanghai SBO Medical Biotechnology Co., Ltd, Shanghai, China). […] After shaking the plates for 30 seconds, the absorbance for each well was read at both 570 nm and 595 nm by a Thermo Scientific Microplate Reader (Thermon Fisher Scientific, Inc., Lowell, Mass.). […]

[2] = test system: A549 tumor cells; assay: Cell viability, MTT assay, 1-6 days; format: cell-based, human; details: 10 μg/ml
Experimental: The cell survival rate was evaluated in a standard MTT assay [3-(4,5-dimethylthiazol-2-yl)-2,5-diphenyltetrazolium bromide assay, Sigma, St. Louis, Mo.). For the assay, about 20 μl MTT (at 4 mg/ml) was added to each well. The cells were incubated at 37° C. for 4 hr. After that, the supernatant of each well was drawn off carefully and then an equal volume (150 microliter) of dimethyl sulfoxide (DMSO) was added to each well and mixed thoroughly on a shaker for 15 min. The absorbance from the plates was read at 595 nm with a Thermo Scientific Microplate Reader (Thermo Fisher Scientific Inc., Lowell, Mass.). The relative cell viability was calculated as follows: Cell viability=(Treated group(OD595) minus blank(OD595))/(Control group(OD595) minus blank(OD595))×100%.

[3] = test system: Axin2; assay: qPCR of Wnt signaling downstream gene in A549 cells; format: cell-based, human; details: 10 μg/ml, 24 hr
Experimental: (§1) After 24 hr of treatment, cellular total mRNA was isolated using TRIZOL Reagent and cDNA was synthesized and further subjected to qPCR, using specific primers of four (4) Wnt signaling downstream genes, Axin2, CD24, Survivin and ID2. Experiments were conducted in triplicate and normalized with the Mock group.
(§2) Total mRNA was isolated using TRIZOL Reagent (Invitrogen, Carlsbad, Calif.) according to the manufacturer's instructions. Complementary DNA (cDNA) was synthesized using a RT-PCR Kit (Cat #:FSQ-101, TOYOBO, Japan) according to the manufacturer's instructions and then subjected to qPCR with a SYBR Green PCR kit (Cat #: QPK-201, TOYOBO, Japan). The primers of the four Wnt pathway target genes were as follows: Axin2 sense primer: 5′-[…]-3′ (SEQ ID NO:8) and antisense primer: 5′-[…]-3′(SEQ ID NO: 9); CD24 sense primer: 5′-[…]-3′ (SEQ ID NO: 10) and antisense primer: 5′-[…]-3′(SEQ ID NO: 11); Survivin sense primer: 5′-[…]-3′ (SEQ ID NO: 12) and antisense primer: 5′-[…]-3′ (SEQ ID NO: 13) and ID2 sense primer: 5′-[…]-3′ (SEQ ID NO: 14) and antisense primer: 5′-[…]-3′(SEQ ID NO: 15).
(§3) The amplification protocol consisted of incubations at 95° C. for 1 minute, 40 cycles (95° C. for 15 seconds, 60° C. for 15 seconds, 72° C. for 30 seconds). Incorporation of the SYBR Green dye into PCR products was monitored in real time with a Bio-Rad Detection System and subsequently analyzed using Bio-Rad CFX manager 2.1 software. The samples were pooled for each condition and run in duplicate. Treated samples were compared to Mock using the 2^−ΔΔCt method and plotted as fold change. GAPDH was used as the normalization control.

[4] = test system: CD24; assay: as above; format: cell-based, human; details: 10 μg/ml, 24 hr
Experimental: as §1, §2, §3

[5] = test system: ID2; assay: as above; format: cell-based, human; details: 10 μg/ml, 24 hr
Experimental: as §1, §2, §3

[6] = test system: LRP6; assay: qPCR of Wnt-related co-receptor mRNA; format: cell-based, human; details: 10 μg/ml, 24 hr
Experimental: The regulation of LRP6/FZD6 by rSIFN-co was investigated. This was conducted by qPCR as performed in Example 9. […] After 24 hr of treatment, total cellular mRNA was isolated using TRIZOL Reagent, and cDNA was subjected to qPCR using specific primers of LRP6 and FZD6. The primers used were: LRP6 sense primer: 5′-[…]-3′ (SEQ ID NO: 4) and antisense primer: 5′-[…]-3′ (SEQ ID NO: 5), and FZD6 sense primer: 5′-[…]-3′ (SEQ ID NO: 6) and antisense primer: 5′-[…]-3′ (SEQ ID NO: 7). Experiments were conducted in triplicate and normalized with the Mock control group. Results were recorded as relative mRNA level of either LRP6 or FZD6 relative to GAPDH.

[7] = test system: human lung cancer SPC-A4 xenografts; details: for TV(mm^3, mean ± SD) (D 0): day 0; for % Inhibition / RTV (mean ± SD) / T/C (%) / TV(mm^3, mean ± SD) (D 21): day 21
Experimental: Under sterile conditions, well-grown tumors were cut into 1.5 mm^3 fragments and one such fragment was injected by trocar needle into the right flank of each study animal. […] Individual tumor size (length and width) was measured twice per week with microcalipers. Tumor volume (V) was calculated using the formula: V=(length×width^2)/2. Individual relative tumor volume (RTV) was calculated using the formula: RTV=Vt/V0, where Vt is the tumor volume on the day of measurement and V0 is the tumor volume on the day of first treatment. Therapeutic effect of the test article or control article was expressed in terms of T/C (%), using the formula: T/C (%)=(mean RTV of the treated group/mean RTV of the control group)×100%; and in terms of % Inhibition, using the formula: % Inhibition=100%−T/C %.
The 1.5 mm^3 fragments were then used for s.c. implantation into the test animals. The body weight of the animals averaged 22±2 g at dose initiation.

[8] = 0.05 mg/mouse i.t. every other day
[9] = 0.10 mg/mouse i.t. every other day
[10] = 0.15 mg/mouse i.t. every other day

B1: rSIFN-co: Recombinant super-compound interferon; amino acid sequence SEQ ID NO: 1 (same as INFERGEN), encoded by novel nucleotide sequence SEQ ID NO: 2 (protein)
chain: MCDLPQTHSLGNRRALILLAQMRRISPFSCLKDRHDFGFPQEEFDGNQFQKAQAISVLHEMIQQTFNLFSTKDSSAAWDESLLEKFYTELYQQLNDLEACVIQEVGVEETPLMNVDSILAVKKYFQRITLYLTEKKYSPCAWEVVRAEIMRSFSLSTNLQERLRRKE
modifications: Amino acid sequence of recombinant interferon
cell viability at 100 mcg/ml [1]: cell viability could not be detected
cell viability over time (MTT) [2]: also apparent for A549 cells for only about the first 3 days of treatment
relative expression level of Axin2 mRNA (Mock control set at 1) [3]: about 0.4
relative expression level of CD24 mRNA (Mock control set at 1) [4]: about 0.4
relative expression level of ID2 mRNA (Mock control set at 1) [5]: about 0.4
relative expression of the LRP6 mRNA ([6]; A549 cells): significant reduction
relative expression of the LRP6 mRNA ([6]; HT-29 cells): significant reduction
relative expression of the LRP6 mRNA ([6]; SW620 cells): significant reduction
mortality [7, 8]: one mouse in the 0.05 mg rSIFN-co-treated group died on day 17
TV(mm^3, mean ± SD) (D 0) [7, 8]: 170 ± 41 mm^3
% Inhibition [7, 8]: 63.68%
RTV (mean ± SD) [7, 8]: 15.45 ± 9.07
T/C (%) [7, 8]: 36.32%
TV(mm^3, mean ± SD) (D 21) [7, 8]: 2244 ± 1043 mm^3
TV(mm^3, mean ± SD) (D 0) [7, 9]: 168 ± 49 mm^3
% Inhibition [7, 9]: 64.95%
RTV (mean ± SD) [7, 9]: 14.91 ± 11.19
T/C (%) [7, 9]: 35.05%
TV(mm^3, mean ± SD) (D 21) [7, 9]: 2388 ± 1544 mm^3
TV(mm^3, mean ± SD) (D 0) [7, 10]: 169 ± 40 mm^3
% Inhibition [7, 10]: 67.75%
RTV (mean ± SD) [7, 10]: 13.72 ± 3.96
T/C (%) [7, 10]: 32.25%
TV(mm^3, mean ± SD) (D 21) [7, 10]: 2284 ± 653 mm^3
tolerability, signs of toxicity or weight loss ([7]; 0.05-0.15 mg/mouse i.t. every other day, 21 days): no signs of toxicity or weight loss were observed
